Data from the supplement of paper PMC10567573.

B1: SMTNL2 (parent)
chain: ETAAGKGKGEARARLKRSQSFGVA

Variants of: B1
Assay: protein stability index of a GFP-peptide fusion (GPS, HEK-293T) (PSI 1-6); higher = more stable
Conditions: c terminus: a fixed tail appended
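Further: lentivirally expressed fusions sorted by FACS into six bins by GFP to DsRed ratio, PSI derived from sequencing read proportions per bin multiplied by bin number.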

Protein stability index of substitutions, site by site:
A24: I 3.75; R 4.52; G 4.6; L 4.49; E 4.71; S 4.65; K 4.41; P 4.88; M 4.29; W 3.57; V 4.01; F 3.97; D 4.9; Q 4.51; H 4.27; Y 3.72; T 4.23; C 4.28; N 5.09
K16: Q 4.21; T 4.39; Y 3.74; V 3.9; W 2.59; S 4.35; P 4.03; R 4.4
F21: P 5.12; C 5.02; I 5.28; L 5.02; Y 4.65; R 4.23; K 5.23; H 4.96; V 5.25; S 5.07; E 5.45; Q 5.2; N 5; G 4.08; M 4.3; T 5.16; D 5.51; W 3.22; A 5.25
G22: M 3.86; K 4.81; D 5.1; F 2.84; V 4.32; R 4.28; Y 3.84; W 2.81; S 5.13; Q 4.36; T 4.31; E 5.65; C 4.84; A 4.2; H 4.14; L 4.1; I 3.9; P 5.71; N 4.76
S18: E 4.36; F 3.65; L 3.49; H 4.02; Y 2.89; A 4.22; M 3.69; D 4.46; T 4.22; P 4.01; C 3.81; N 4.5; W 3.64; G 4.6; V 3.94; Q 4.43; R 4.26; I 3.52; K 4.43
Q19: K 4.46; I 3.27; H 4.81; F 3.67; W 4.33; V 3.96; A 4.35; G 4.38; D 4.61; P 4.45; N 4.89; S 3.19; T 4.68; E 5.15; M 4.18; R 4.3; Y 3.89; C 4.09; L 4.08
S20: P 4.27; W 3.02; D 4.58; Y 3.98; V 4.27; K 4.69; N 4.3; H 4.26; F 4.09; L 4.02; M 4.3; E 4.87; C 4.51; I 3.5; R 4.09; Q 4.08; A 4.56; G 3.76; T 4.77
V23: K 4.95; Q 4.94; S 5.17; G 5.23; R 4.89; W 3.96; H 5.02; C 4.83; E 5.35; T 4.75; L 3.68; A 5.1; Y 4.11; N 4.68; P 4.62; I 4.39; D 4.84; F 3.98; M 4.84
R17: G 4.24; A 4.14; L 3.76; Y 3.81; D 4.31; M 4.09; N 4.54; C 3.62; W 2.95; I 3.82; T 4.17; E 4.65; K 4.6; S 4.18; Q 4.67; P 3.23; H 4.54; V 3.59; F 3.19
